According to the supplement of paper PMC11316812:
± gives the standard deviation of the averaged measurements.

Columns and labels:
[1] = tested on: MCF7; assay: percentage of EdU-negative (G0-arrested) nuclei per well, 72 h; higher = more G0 arrest; settings: reference: sequence is the full UniProt precursor, the tested protein was the secreted form or ectodomain
[2] = tested on: hTERT-HMEC; assay: as above; settings: reference: sequence is the full UniProt precursor, the tested protein was the secreted form or ectodomain
[3] = protein concentration 0.02325 µM
[4] = protein concentration 0.2325 µM
[5] = protein concentration 0.0225 µM
[6] = protein concentration 0.0135 µM
[7] = protein concentration 0.0193425 µM
[8] = protein concentration 0.193425 µM
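Note: secreted proteins added to cultured cells, EdU pulse at the end, nuclei found by Hoechst imaging, EdU status from nuclear versus surrounding ring intensity ratio, PBS as neutral control.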

## MDLLQFLAFLFVLLLSGMGATGTLRTSLDPSLEIYKKMFEVKRREQLLALKNLAQLNDIHQQYKILDVMLKGLFKVLEDSRTVLTAADVLPDGPFPQDEKLKDAFSHVVENTAFFGDVVLRFPRIVHYYFDHNSNWNLLIRWGISFCNQTGVFNQGPHSPILSLMAQELGISEKDSNFQNPFKIDRTEFIPSTDPFQKALREEEKRRKKEEKRKEIRKGPRISRSQSEL [Q9H6E4]
[1]; [3]
  percentage of EdU-negative: 27.1 ± 0.79%
[1]; [4]
  percentage of EdU-negative: 26.7 ± 0.95%
[2]; [3]
  percentage of EdU-negative: 5.552 ± 0.014%
[2]; [4]
  percentage of EdU-negative: 6.34 ± 0.88%

## MDLRDFYLLAALIACLRLDSAIAQELIYTIREELPENVPIGNIPKDLNISHINAATGTSASLVYRLVSKAGDAPLVKVSSSTGEIFTTSNRIDREKLCAGASYAEENECFFELEVVILPNDFFRLIKIKIIVKDTNDNAPMFPSPVINISIPENTLINSRFPIPSATDPDTGFNGVQHYELLNGQSVFGLDIVETPEGEKWPQLIVQQNLDREQKDTYVMKIKVEDGGTPQKSSTAILQVTVSDVNDNRPVFKEGQVEVHIPENAPVGTSVIQLHATDADIGSNAEIRYIFGAQVAPATKRLFALNNTTGLITVQRSLDREETAIHKVTVLASDGSSTPARATVTINVTDVNDNPPNIDLRYIISPINGTVYLSEKDPVNTKIALITVSDKDTDVNGKVICFIEREVPFHLKAVYDNQYLLETSSLLDYEGTKEFSFKIVASDSGKPSLNQTALVRVKLEDENDNPPIFNQPVIELSVSENNRRGLYLTTISATDEDSGKNADIVYQLGPNASFFDLDRKTGVLTASRVFDREEQERFIFTVTARDNGTPPLQSQAAVIVTVLDENDNSPKFTHNHFQFFVSENLPKYSTVGVITVTDADAGENKAVTLSILNDNDNFVLDPYSGVIKSNVSFDREQQSSYTFDVKATDGGQPPRSSTAKVTINVMDVNDNSPVVISPPSNTSFKLVPLSAIPGSVVAEVFAVDVDTGMNAELKYTIVSGNNKGLFRIDPVTGNITLEEKPAPTDVGLHRLVVNISDLGYPKSLHTLVLVFLYVNDTAGNASYIYDLIRRTMETPLDRNIGDSSQPYQNEDYLTIMIAIIAGAMVVIVVIFVTVLVRCRHASRFKAAQRSKQGAEWMSPNQENKQNKKKKRKKRKSPKSSLLNFVTIEESKPDDAVHEPINGTISLPAELEEQSIGRFDWGPAPPTTFKPNSPDLAKHYKSASPQPAFHLKPDTPVSVKKHHVIQELPLDNTFVGGCDTLSKRSSTSSDHFSASECSSQGGFKTKGPLHTRQCNSHSKSDNIPVTPQKCPSSTGFHIQENEESHYESQRRVTFHLPDGSQESCSDSGLGDHEPVGSGTLISHPLPLVQPQDEFYDQASPDKRTEADGNSDPNSDGPLGPRGLAEATEMCTQECLVLGHSDNCWMPPGLGPYQHPKSPLSTFAPQKEWVKKDKLVNGHTLTRAWKEDSNRNQFNDRKQYGSNEGHFNNGSHMTDIPLANLKSYKQAGGATESPKEHQL [Q9HC56]
[1]; [5]
  percentage of EdU-negative: 25.9 ± 2.1%
[1]; protein concentration 0.225 µM
  percentage of EdU-negative: 32.9 ± 2.9%
[2]; [5]
  percentage of EdU-negative: 4.64 ± 0.43%
[2]; protein concentration 0.225 µM
  percentage of EdU-negative: 13.4 ± 3.9%

## MDLRQFLMCLSLCTAFALSKPTEKKDRVHHEPQLSDKVHNDAQSFDYDHDAFLGAEEAKTFDQLTPEESKERLGKIVSKIDGDKDGFVTVDELKDWIKFAQKRWIYEDVERQWKGHDLNEDGLVSWEEYKNATYGYVLDDPDPDDGFNYKQMMVRDERRFKMADKDGDLIATKEEFTAFLHPEEYDYMKDIVVQETMEDIDKNADGFIDLEEYIGDMYSHDGNTDEPEWVKTEREQFVEFRDKNRDGKMDKEETKDWILPSDYDHAEAEARHLVYESDQNKDGKLTKEEIVDKYDLFVGSQATDFGEALVRHDEF
[1]; [6]
  percentage of EdU-negative: 22.72 ± 0.078%
[1]; protein concentration 0.135 µM
  percentage of EdU-negative: 23.6 ± 3.3%
[2]; [6]
  percentage of EdU-negative: 5.58 ± 1.3%
[2]; protein concentration 0.135 µM
  percentage of EdU-negative: 7.65 ± 0.27%

## MDLSAAAALCLWLLSACRPRDGLEAAAVLRAAGAGPVRSPGGGGGGGGGGRTLAQAAGAAAVPAAAVPRARAARRAAGSGFRNGSVVPHHFMMSLYRSLAGRAPAGAAAVSASGHGRADTITGFTDQATQDESAAETGQSFLFDVSSLNDADEVVGAELRVLRRGSPESGPGSWTSPPLLLLSTCPGAARAPRLLYSRAAEPLVGQRWEAFDVADAMRRHRREPRPPRAFCLLLRAVAGPVPSPLALRRLGFGWPGGGGSAAEERAVLVVSSRTQRKESLFREIRAQARALGAALASEPLPDPGTGTASPRAVIGGRRRRRTALAGTRTAQGSGGGAGRGHGRRGRSRCSRKPLHVDFKELGWDDWIIAPLDYEAYHCEGLCDFPLRSHLEPTNHAIIQTLLNSMAPDAAPASCCVPARLSPISILYIDAANNVVYKQYEDMVVEACGCR [Q7Z4P5]
[1]; [7]
  percentage of EdU-negative: 26.75 ± 0.031%
[1]; [8]
  percentage of EdU-negative: 28.9 ± 2.2%
[2]; [7]
  percentage of EdU-negative: 5.309 ± 0.0057%
[2]; [8]
  percentage of EdU-negative: 5.34 ± 1.2%

## MDLSLLWVLLPLVTMAWGQYGDYGYPYQQYHDYSDDGWVNLNRQGFSYQCPQGQVIVAVRSIFSKKEGSDRQWNYACMPTPQSLGEPTECWWEEINRAGMEWYQTCSNNGLVAGFQSRYFESVLDREWQFYCCRYSKRCPYSCWLTTEYPGHYGEEMDMISYNYDYYIRGATTTFSAVERDRQWKFIMCRMTEYDCEFANV
[1]; [5]
  percentage of EdU-negative: 25.1 ± 0.98%
[1]; protein concentration 0.225 µM
  percentage of EdU-negative: 26.2 ± 0.3%
[2]; [5]
  percentage of EdU-negative: 5.38 ± 0.62%
[2]; protein concentration 0.225 µM
  percentage of EdU-negative: 4.92 ± 0.97%

## MDLSRPRWSLWRRVFLMASLLACGICQASGQIFITQTLGIKGYRTVVALDKVPEDVQEYSWYWGANDSAGNMIISHKPPSAQQPGPMYTGRERVNREGSLLIRPTALNDTGNYTVRVVAGNETQRATGWLEVLELGSNLGISVNASSLVENMDSVAADCLTNVTNITWYVNDVPTSSSDRMTISPDGKTLVILRVSRYDRTIQCMIESFPEIFQRSERISLTVAYGPDYVLLRSNPDDFNGIVTAEIGSQVEMECICYSFLDLKYHWIHNGSLLNFSDAKMNLSSLAWEQMGRYRCTVENPVTQLIMYMDVRIQAPHEDLTCCPQRFLHLRIHGDVPHHADSAGWRLHLWSPDPCSDQPLLNQDKSGSMSVHPRPEDKTRRASR [A8MTB9]
[1]; [5]
  percentage of EdU-negative: 28.6 ± 0.05%
[1]; protein concentration 0.225 µM
  percentage of EdU-negative: 27.4 ± 0.32%
[2]; [5]
  percentage of EdU-negative: 4.89 ± 0.18%
[2]; protein concentration 0.225 µM
  percentage of EdU-negative: 4.46 ± 0.032%
